The target of the assay is dendritic cell-specific intercellular adhesion molecule-3-grabbing nonintegrin (DC-SIGN) (UniProt Q9NNX6). The assay is described as follows: cell-based or functional assay.
UniProt Q9NNX6, sequence (Q9NNX6 whole entry): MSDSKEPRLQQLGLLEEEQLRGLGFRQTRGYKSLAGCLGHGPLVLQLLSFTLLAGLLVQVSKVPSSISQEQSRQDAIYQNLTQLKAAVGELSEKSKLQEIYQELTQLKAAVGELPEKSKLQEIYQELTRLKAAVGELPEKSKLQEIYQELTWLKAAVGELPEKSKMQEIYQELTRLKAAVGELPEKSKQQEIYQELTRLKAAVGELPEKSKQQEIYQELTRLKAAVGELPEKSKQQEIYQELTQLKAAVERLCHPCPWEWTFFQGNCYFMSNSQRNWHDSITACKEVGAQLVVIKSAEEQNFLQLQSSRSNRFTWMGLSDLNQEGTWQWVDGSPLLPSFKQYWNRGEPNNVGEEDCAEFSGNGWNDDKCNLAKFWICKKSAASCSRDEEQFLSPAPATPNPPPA

With “Man-OvaI/II (combination of particles PP7-Man900-OvaI100 and PP7-Man900-OvaII100) (from UniProt P03630 2-127)”, the uptake of fluorophore-labeled VLPs by moDCs over 30 min (flow cytometry) (fold against PE-OvaI/II) amounted to 5.
